Measured values from US20210380680A1 (ZLLP, published 2021).
Substitutions are numbered along the chain they refer to. Names and notes keep the numbering of the source.

B1: 364D1A7-H1L1 (antibody, V domains shown)
VH: EVQLVESGGGLVQPGGSLRLSCAASGFTFSSFGMHWVRQAPGKGLEWVSYISSGSGSIYYADTVKGRFTISRDNAKNSLYLQMNSLRAEDTAVYYCATSYYYGNALEYWGQGTTVTVSS
VL: DIVMTQSPDSLAVSLGERATINCKSSQSLFNVGNQKNYLTWYQQKPGQPPKLLIYWASTRKSGVPDRFSGSGSGTDFTLTISSLQAEDVAVYYCQNVYSYPLTFGGGTKVEIK
notes: humanized IgG; constant regions not specified
B2: 413H9F8-cp3 (antibody, V domains shown)
VH: DVQLVESGGGLVQPGGSLRLSCAASGFTFSSFGMHWVRQAPGKGLEWVAYISSGSSPIYYVDKLKGRFTVSRDNAKNSLYLQMNSLRAEDTAVYYCARAGYAVRNALDYWGQGTLVTVSS
VL: EIVMTQSPPTLSLSPGERVTLSCKSSQSLLNVGNQKNYLAWYQQKPGQAPRLLIYGASTRESGIPARFSGSGSGTDFTLTISSLQPEDFAVYYCQNDLFYPLTFGGGTKVEIK
notes: as for B1
B3: 413H9F8-cp7 (antibody, V domains shown)
VH: B2 VH with D1E, A49S, V70I
VL: B2 VL with E1D, R51K, A66D
notes: as for B1
B4: 413H9F8-cp8 (antibody, V domains shown)
VH: B2 VH with V70I
VL: B2 VL with E1D, R51K, A66D
notes: as for B1
B5: 413H9F8-cp5 (antibody, V domains shown)
VH: B2 VH with V70I
VL: B2 VL with E1D, A66D
notes: as for B1
B6: hz282-19 (antibody, V domains shown)
VH: QVQLQESGPGLVKPSETLSLTCTVSGFSLTSYNVYWIRQPPGKGLEWIGVIWNTGATRYNSALKSRVTISKDTSKSQVSLKLSSVTAADTAVYYCARDSAMPAIPFAYWGQGTLVTVSS
VL: DIVMTQSPSSLSASVGDRVTINCKSSQSLFGSVRQKNYLAWYQQKPGKSPKLLIYLASTRESGVPDRFSGSGSGTDFTLTISSLQPEDFAKYYCQQYYDIPWTFGGGTKVEIK
notes: as for B1
B7: hz282-15 (antibody, V domains shown)
VH: B6 VH
VL: B6 VL with V3Q, N22T
notes: as for B1
B8: hz282-11 (antibody, V domains shown)
VH: B6 VH
VL: B6 VL with V3Q, N22T, S49A, D66S, K91T
notes: humanized IgG; constant regions not specified; also called humanized 282A12(T62A) (hz282-11)
B9: hz282-12 (antibody, V domains shown)
VH: B6 VH with S25A
VL: B6 VL with V3Q, N22T, S49A, D66S, K91T
notes: as for B1
B10: hz282-8 (antibody, V domains shown)
VH: B6 VH with S25A
VL: B6 VL with S9D, S12A, A13V, V15L, D17E, V19A, K48Q, P86A, F89V
notes: as for B1
B11: hz282-16 (antibody, V domains shown)
VH: B6 VH with S25A
VL: B6 VL with V3Q, N22T
notes: as for B1
B12: hz282-18 (antibody, V domains shown)
VH: B6 VH with S76N
VL: B6 VL
notes: as for B1
B13: hz282-3 (antibody, V domains shown)
VH: B6 VH
VL: DIVMTQSPDSLAVSLGERATINCKSSQSLFGSVRQKNYLAWYQQKPGQPPKLLIYLASTRESGVPDRFSGSGSGTDFTLTISSLQAEDVAVYYCQQYYDIPWTFGGGTKVEIK
notes: as for B1
B14: hz282-4 (antibody, V domains shown)
VH: B6 VH with S25A
VL: B13 VL
notes: as for B1
B15: hz282-10 (antibody, V domains shown)
VH: B6 VH with S76N
VL: B6 VL with V3Q, N22T, S49A, D66S, K91T
notes: as for B1
B16: hz282-20 (antibody, V domains shown)
VH: B6 VH with S25A
VL: B6 VL
notes: as for B1
B17: hz282-14 (antibody, V domains shown)
VH: B6 VH with S76N
VL: B6 VL with V3Q, N22T
notes: as for B1
B18: 413H9F8-cp10 (antibody, V domains shown)
VH: B2 VH with D1E, A49S, V70I
VL: B2 VL with E1D, R51K, A66D, Y93F
notes: as for B1
B19: 413H9F8-cp12 (antibody, V domains shown)
VH: B2 VH
VL: B2 VL with E1D, R51K, A66D, Y93F
notes: as for B1
B20: 413H9F8-cp4 (antibody, V domains shown)
VH: B2 VH with D1E, A49S, V70I
VL: B2 VL with E1D, A66D
notes: as for B1
B21: 413H9F8-cp11 (antibody, V domains shown)
VH: B2 VH with V70I
VL: B2 VL with E1D, R51K, A66D, Y93F
notes: humanized IgG; constant regions not specified; also called 413H9F8-cp811
B22: 413H9F8-cp6 (antibody, V domains shown)
VH: B2 VH
VL: B2 VL with E1D, A66D
notes: as for B1
B23: 413H9F8-cp9 (antibody, V domains shown)
VH: B2 VH
VL: B2 VL with E1D, R51K, A66D
notes: as for B1

target: T1, human Claudin 18.2 (CLDN18.2) (human, UniProt P56856-2 1-261); experiment: cell-based or functional assay

In order of falling “% ADCC @ 6.67 nM, NCI-N87-CLDN18.2, FcR-TANK” value:
1. B5  14.1%
2. B1  13.5%
3. B3  13.3%
4. B4  13.1%
5. B2  11.1%

In order of rising “ADCC EC50, NCI-N87-CLDN18.2, FcR-TANK” value:
1. B2  0.22 nM
2. B4  0.27 nM
3. B5  0.27 nM
4. B3  0.28 nM
5. B1  0.4 nM

target: T1, human Claudin 18.2 (CLDN18.2); experiment: cell-based or functional assay; remark: another data set of the same source

In order of rising “% specific cytotoxicity @ 6.67 nM, NUGC4-CLDN18.2, PBMC” value:
1. B1  26.7%
2. B4  27.7%
3. B5  29.6%
4. B3  29.7%
5. B2  30.5%

In order of falling “ADCC EC50, NUGC4-CLDN18.2, PBMC” value:
1. B1  13.3 nM
2. B4  8.85 nM
3. B5  7.75 nM
4. B3  6.68 nM
5. B2  5.86 nM

target: T1, human Claudin 18.2 (CLDN18.2); experiment: cell-based or functional assay; remark: another data set of the same source

For B1, the “CDC EC50, human serum, CHO-CLDN18.2” value was 1.48 nM.

target: T2, CLDN18.2 endogenously expressed on SNU620 gastric cancer cells (UniProt P56856-2 1-261, limits assumed); experiment: FACS Exp. 3, SNU620 cells
T2 construct: whole, on cells; also called SU620

In order of falling “MFI_SNU620 (@30 ug/ml)” value:
1. B8  1340 MFI
2. B6  1310 MFI
3. B15  1310 MFI
4. B11  1280 MFI
5. B16  1240 MFI
6. B7  1230 MFI
7. B9  1220 MFI
8. B17  1220 MFI
9. B12  1210 MFI
10. B10  1190 MFI
11. B13  1150 MFI
12. B14  1080 MFI

target: T1, human Claudin 18.2 (CLDN18.2); experiment: FACS on CHO-CLDN18.2 cells

In order of falling EC50:
1. B18  3.69 nM
2. B8  3.68 nM
3. B19  3.01 nM
4. B4  2.72 nM
5. B21  2.61 nM
6. B5  2.54 nM
7. B3  2.47 nM
8. B22  2.32 nM
9. B20  2.28 nM
10. B23  2.21 nM
11. B2  2.09 nM

target: T1, human Claudin 18.2 (CLDN18.2); experiment: FACS on CHO-CLDN18.2 cells; remark: another data set of the same source

In the case of B8, the EC50 is reported as 3.17 nM.

target: T1, human Claudin 18.2 (CLDN18.2); experiment: FACS on CHO-CLDN18.2 cells; remark: another data set of the same source

In order of falling EC50:
1. B1  3.5 nM
2. B8  2.75 nM

target: T1, human Claudin 18.2 (CLDN18.2); experiment: FACS Exp. 1, MFI ratio CHO-18.2 over CHO-18.1

In order of falling “MFI_CHO-18.2/CHO-18.1 (@30 ug/ml)” value:
1. B7  1380
2. B14  1240
3. B9  1230
4. B8  1190
5. B13  1100
6. B16  981
7. B10  960
8. B6  812
9. B15  808
10. B17  798
11. B12  781
12. B11  550

target: T1, human Claudin 18.2 (CLDN18.2); experiment: FACS Exp. 2, MFI ratio CHO-18.2 over CHO-18.1

In order of falling “MFI_CHO-18.2/CHO-18.1 (@30 ug/ml)” value:
1. B14  2540
2. B7  2020
3. B8  2000
4. B9  1940
5. B13  1670
6. B10  1610
7. B15  1500
8. B6  1010
9. B16  987
